# B1: recombinant wild type FXIII-B subunit (coagulation Factor XIII B subunit) (natural protein, human, UniProt P05160 21-661, looked up)
# chain: EEKPCGFPHVENGRIAQYYYTFKSFYFPMSIDKKLSFFCLAGYTTESGRQEEQTTCTTEGWSPEPRCFKKCTKPDLSNGYISDVKLLYKIQENMRYGCASGYKTTGGKDEEVVQCLSDGWSSQPTCRKEHETCLAPELYNGNYSTTQKTFKVKDKVQYECATGYYTAGGKKTEEVECLTYGWSLTPKCTKLKCSSLRLIENGYFHPVKQTYEEGDVVQFFCHENYYLSGSDLIQCYNFGWYPESPVCEGRRNRCPPPPLPINSKIQTHSTTYRHGEIVHIECELNFEIHGSAEIRCEDGKWTEPPKCIEGQEKVACEEPPFIENGAANLHSKIYYNGDKVTYACKSGYLLHGSNEITCNRGKWTLPPECVENNENCKHPPVVMNGAVADGILASYATGSSVEYRCNEYYLLRGSKISRCEQGKWSSPPVCLEPCTVNVDYMNRNNIEMKWKYEGKVLHGDLIDFVCKQGYDLSPLTPLSELSVQCNRGEVKYPLCTRKESKGMCTSPPLIKHGVIISSTVDTYENGSSVEYRCFDHHFLEGSREAYCLDGMWTTPPLCLEPCTLSFTEMEKNNLLLKWDFDNRPHILHGEYIEFICRGDTYPAELYITGSILRMQCDRGQLKYPRCIPRQSTLSYQEPLRT
# notes: Coagulation factor XIII B chain, human; F13B cDNA (ORF length 1986 bp) in the pEZ-M01 vector; The whole ORF was expressed; the secreted product was analysed; also called rFXIII-B; rFXIII-B2; source: HEK293T, transiently transfected, secreted into the culture medium
# Biological target: the molecule itself
# Assay: native gel or EMSA; non-denaturing Native-PAGE (BN sample buffer), transfer to PVDF, Western blot with mouse anti-human FXIII-B antibody
protein,measurement,value
B1,stoichiometry N,2

# Reference: article PMC6514982, “Disruption of Structural Disulfides of Coagulation FXIII-B Subunit; Functional Implications for a Rare Bleeding Disorder” (International Journal of Molecular Sciences, 2019)
